Test results: paper PMC4376794, “Production of Functional Human Vitamin A Transporter/RBP Receptor (STRA6) for Structure Determination” (PLoS ONE, 2015)

Assays:
[1] = molecular target: T1, retinol binding protein (His-RBP) (UniProt P02753 19-201); assay: SPR; apo-RBP (6.9-219.3 uM) flowed over STRA6-GFP captured by its c-Myc tag on immobilised anti-c-Myc antibody (CM5, Biacore 3000); anti-HA antibody reference cell; room temperature; steady-state responses fitted to one site plus a linear low-affinity component; triplicate; conditions: both partners purified
[2] = molecular target: T1, retinol binding protein (His-RBP); assay: SPR; holo-RBP (retinol-loaded, 6.9-219.3 uM) flowed over STRA6-GFP captured by its c-Myc tag on immobilised anti-c-Myc antibody (CM5, Biacore 3000); anti-HA antibody reference cell; room temperature; steady-state responses fitted to one site plus a linear low-affinity component; triplicate; conditions: both partners purified

Kd [1]: 22.4 µM
Kd [2]: 19.4 µM
B1: STRA6-GFP-c-Myc-His6 (STRA6-HRV3C-eGFP-Myc-His6) (receptor, human)
chain: MSSQPAGNQTSPGATEDYSYGSWYIDEPQGGEELQPEGEVPSCHTSIPPGLYHACLASLSILVLLLLAMLVRRRQLWPDCVRGRPGLPSPVDFLAGDRPRAVPAAVFMVLLSSLCLLLPDEDALPFLTLASAPSQDGKTEAPRGAWKILGLFYYAALYYPLAACATAGHTAAHLLGSTLSWAHLGVQVWQRAECPQVPKIYKYYSLLASLPLLLGLGFLSLWYPVQLVRSFSRRTGAGSKGLQSSYSEEYLRNLLCRKKLGSSYHTSKHGFLSWARVCLRHCIYTPQPGFHLPLKLVLSATLTGTAIYQVALLLLVGVVPTIQKVRAGVTTDVSYLLAGFGIVLSEDKQEVVELVKHHLWALEVCYISALVLSCLLTFLVLMRSLVTHRTNLRALHRGAALDLSPLHRSPHPSRQAIFCWMSFSAYQTAFICLGLLVQQIIFFLGTTALAFLVLMPVLHGRNLLLFRSLESSWPFWLTLALAVILQNMAAHWVFLETHDGHPQLTNRRVLYAATFLLFPLNVLVGAMVATWRVLLSALYNAIHLGQMDLSLLPPRAATLDPGYYTYRNFLKIEVSQSHPAMTAFCSLLLQAQSLLPRTMAAPQDSLRPGEEDEGMQLLQTKDSMAKGARPGASRGRARWGLAYTLLHNPTLQVFRKTALLGANGAQP
notes: human STRA6, full length (transcript variant 2); In SPR it was held by its C-terminal c-Myc tag on an anti-c-Myc antibody; also called vitamin A transporter/RBP receptor; RBP receptor; source: Pichia pastoris KM71H (pPICZ-A); on whole cells, in broken cells, and purified (solubilised in C12E9, Ni-NTA with exchange to DDM, size exclusion); not shown: GFP (eGFP), C-terminal, kept; c-Myc, …
